In patent US20230348578A1 (BETH ISRAEL DEACONESS MEDICAL CENTER, published 2023):
Positions count from the first letter of the chain named.

B1: Cis-mAb HT13 (mouse-human chimera, control) (antibody, V domains shown)
VH: QVQLQQPGAELVKPGASVKMSCKASGYTFTSYWIHWVKQRPGQGLEWIGVIDPSDSYTRYNQKFKGKATLTVDTSSSTAYMQLSSLTSEDSAVYYCTTWEVDYWGQGTTLTVSS
VL: DVVMTQTPLSLPVSLGDQASISCRSSQSLVHSDGNTYLHWYLQKPGQSPKLLIYKVSNRFSGVPDRFSGSGSGTDFTLKISRLEAEDLGVYFCSQSTHVPWTFGGGTKLEIK
B2: Cis-mAb HT1 (humanized) (antibody, V domains shown)
VH: B1 VH with Q5V, P7S, V12K, K67R, S76A, L110V
VL: B1 VL with T7S, S14T, D17Q, Q18P, K50Q, L83V, L88V, L109V
B3: Cis-mAb HT8 (humanized) (antibody, V domains shown)
VH: QVQLVQSGAEVKKPGASVKVSCKASGYTFTSYWIHWVRQRPGQGLEWIGVIDPSDSYTRYNQKFKGRVTITRDTSASTAYMELSSLRSEDTAVYYCTTWEVDYWGQGTLVTVSS
VL: B1 VL with T7S, S14T, D17Q, Q18P, K50Q, F60D, L83V, L88V, L109V
B4: Cis-mAb HT2 (humanized) (antibody, V domains shown)
VH: B3 VH with V20M, R38K, V68A, I70L, R72V
VL: B1 VL with T7S, S14T, D17Q, Q18P, K50Q, L83V, L88V, L109V
B5: Cis-mAb HT3 (humanized) (antibody, V domains shown)
VH: B3 VH with I70L, R72V
VL: B1 VL with T7S, S14T, D17Q, Q18P, K50Q, L83V, L88V, L109V
B6: Cis-mAb HT10 (humanized) (antibody, V domains shown)
VH: B3 VH with V20M, R38K, V68A, I70L, R72V
VL: B1 VL with T7S, S14T, D17Q, Q18P, K50Q, L83V, L88V, F92Y, L109V
B7: Cis-mAb HT18 (humanized) (antibody, V domains shown)
VH: B3 VH with A16S, R40A, I48M, A76M, M81T
VL: DIQMTQSPSTLSASVGDRVTITCRSSQSLVHSDGNTYLHWYQQKPGKAPKLLIYKVSNRFSGVPSRFSGSGSGTEFTLTISSLQPDDFATYYCSQSTHVPWTFGQGTKLEIK

What follows are binders tested against cis P-tau in cultured neurons stressed by hypoxia (assay: cell-based or functional assay).

| Binder | Cis P-tau elimination |
| --- | --- |
| B1 | 1 relative (HT13 = 1.0) |
| B2 | 1.7 relative (HT13 = 1.0) |
| B3 | 0.9 relative (HT13 = 1.0) |
| B4 | 1.5 relative (HT13 = 1.0) |
| B5 | 1.6 relative (HT13 = 1.0) |
| B6 | 0.9 relative (HT13 = 1.0) |
| B7 | 0.8 relative (HT13 = 1.0) |
